In paper PMC11623273:

Target: Fab fragment of neutralizing antibody HCV1
Sequence (heavy, as listed by the source, chain 1 of 2): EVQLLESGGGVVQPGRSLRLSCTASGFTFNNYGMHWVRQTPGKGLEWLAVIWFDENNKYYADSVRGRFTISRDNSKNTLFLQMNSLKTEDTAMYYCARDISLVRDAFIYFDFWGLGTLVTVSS
Sequence (light, as listed by the source, chain 2 of 2): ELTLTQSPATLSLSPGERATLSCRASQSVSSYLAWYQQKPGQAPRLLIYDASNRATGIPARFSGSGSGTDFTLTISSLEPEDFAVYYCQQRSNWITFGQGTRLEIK

soluble HCV E2 ectodomain (sE2) (domain or fragment), sequence (Q99IB8 384-719): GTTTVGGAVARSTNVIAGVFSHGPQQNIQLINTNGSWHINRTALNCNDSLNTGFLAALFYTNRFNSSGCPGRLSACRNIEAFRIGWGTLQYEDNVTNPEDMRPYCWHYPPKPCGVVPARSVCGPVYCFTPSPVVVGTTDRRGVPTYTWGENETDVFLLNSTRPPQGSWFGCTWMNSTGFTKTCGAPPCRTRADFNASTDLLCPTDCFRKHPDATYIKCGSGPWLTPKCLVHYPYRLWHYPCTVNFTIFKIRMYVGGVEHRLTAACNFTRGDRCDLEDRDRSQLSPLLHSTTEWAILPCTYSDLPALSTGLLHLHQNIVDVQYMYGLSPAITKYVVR

Kd: 0.294 µM
koff: 0.00435 s⁻¹
kon: 14800 M⁻¹ s⁻¹
Substance: soluble HCV E2 ectodomain (sE2) (domain or fragment)
